Drawing on PMC6034166, this text covers stoichiometry N for one substance.

For this assay, the target named is ethylenediamine-N,N′-disuccinic acid lyase (EDDS lyase) from Chelativorans sp. BNC1 (Chelativorans sp. BNC1). The experiment in a line: SEC + other: dynamic light scattering.

What is called stoichiometry N is a count of units in the complex or per binding partner. As for “ethylenediamine-N,N′-disuccinic acid lyase (EDDS lyase) from Chelativorans sp. BNC1 (enzyme)”, the stoichiometry N is 4.
